Data published in the RNAGym collection of RNA variant scans (doi:10.7554/elife.80360).

B1: HDV Ribozyme (parent)
chain: GGCCGGCAUGGUCCCAGCCUCCUCGCUGGCGCCGGCUGGGCAACAUUCCGAGGGGACCGUCCCCUCGGUAAUGGCGAAUGGGACCCA

Variants of: B1
Assay: self-cleavage, relative activity (ratio to wild type); higher = more cleavage; co-transcriptional

Point of comparison: GGCCGGCAUGGUCCCAGCCUCCUCGCUGGCGCCGGCUGGGCAACAUUCCGAGGGGAUCGUCCCCUCGGCAAUGGCGAAUGGGACCCA, self-cleavage 0.831. Against it:
- GGCCGGCAUGGUCCCAGCCUCCUCGCUGGCGCCGGCUGGGCAACAUUCCGAGGGGACAGUCCCCUCCGUAAUGGCGAAUGGGACCCA — higher, 0.886
- GGCCGGCAUGGUCCCAGCCUCCUCGCUGGCGCCGGCUGGGCAACAUUCCGAGGGGACAGUCCCCUCUGUAAUGGCGAAUGGGACCCA — higher, 0.946
- GGCCGGCAUGGUCCCAGCCUCCUCGCUGGCGCCGGCUGGGCAACAUUCCGAGGGGACAGUCCCCUCGGUAAUAGCGAAUGGGACCCA — lower, 0.787
- GGCCGGCAUGGUCCCAGCCUCCUCGCUGGCGCCGGCUGGGCAACAUUCCGAGGGGACGGUGCCCUCGGUAAUGGCGAAUGGGACCCA — higher, 0.88
- GGCCGGCAUGGUCCCAGCCUCCUCGCUGGCGCCGGCUGGGCAACAUUCCGAGGGGACGGUUCCCUCGGUAAUGGCGAAUGGGACCCA — higher, 0.851
- GGCCGGCAUGGUCCCAGCCUCCUCGCUGGCGCCGGCUGGGCAACAUUCCGAGGGGACUGUCCCCUGGGUAAUGGCGAAUGGGACCCA — higher, 0.931
- GGCCGGCAUGGUCCCAGCCUCCUCGCUGGCGCCGGCUGGGCAACAUUCCGAGGGGACAGUCCCCUCGGUAAUGGCGAAUGGGACCUA — higher, 1.1
- GGCCGGCAUGGUCCCAGCCUCCUCGCUGGCGCCGGCUGGGCAACAUUCCGAGGGGAUCGUCCCCUCGGAAAUGGCGAAUGGGACCCA — higher, 1.15
- GGCCGGCAUGGUCCCAGCCUCCUCGCUGGCGCCGGCUGGGCAACAUUCCGAGGGGACAGUCCCCUCGGCAAUGGCGAAUGGGACCCA — higher, 1.17
- GGCCGGCAUGGUCCCAGCCUCCUCGCUGGCGCCGGCUGGGCAACAUUCCGAGGGGACAGUCCCCUCGGUCAUGGCGAAUGGGACCCA — higher, 1.04
- GGCCGGCAUGGUCCCAGCCUCCUCGCUGGCGCCGGCUGGGCAACAUUCCGAGGGGACAGUCCCCUCGGUGAUGGCGAAUGGGACCCA — lower, 0.807
- GGCCGGCAUGGUCCCAGCCUCCUCGCUGGCGCCGGCUGGGCAACAUUCCGAGGGGACAUUCCCCUCGGUAAUGGCGAAUGGGACCCA — higher, 0.89
- GGCCGGCAUGGUCCCAGCCUCCUCGCUGGCGCCGGCUGGGCAACAUUCCGAGGGGACGGUCCCCUCGGUAAUGGCGCAUGGGACCCA — lower, 0.361
- GGCCGGCAUGGUCCCAGCCUCCUCGCUGGCGCCGGCUGGGCAACAUUCCGAGGGGACGGUCCCCUCGGUAAUGGCGUAUGGGACCCA — lower, 0.388
- GGCCGGCAUGGUCCCAGCCUCCUCGCUGGCGCCGGCUGGGCAACAUUCCGAGGGGACUGUCCCCUCGGUAAUGGCGAAUGGGACCCC — higher, 0.905
- GGCCGGCAUGGUCCCAGCCUCCUCGCUGGCGCCGGCUGGGCAACAUUCCGAGGGGACUGUCCCCUCGGUAAUGGCGAAUGGGACCCU — higher, 0.915
- GGCCGGCAUGGUCCCAGCCUCCUCGCUGGCGCCGGCUGGGCAACAUUCCGAGGGGACGGUCCCCUCAGUAAUGGCGAAUGGGACCCA — higher, 1.28
- GGCCGGCAUGGUCCCAGCCUCCUCGCUGGCGCCGGCUGGGCAACAUUCCGAGGGGACGGUCCCCUCGGUAAUGGGGAAUGGGACCCA — lower, 0.415
- GGCCGGCAUGGUCCCAGCCUCCUCGCUGGCGCCGGCUGGGCAACAUUCCGAGGGGAUCGUCCCCUCGGUAAUGGCGAACGGGACCCA — lower, 0.237
- GGCCGGCAUGGUCCCAGCCUCCUCGCUGGCGCCGGCUGGGCAACAUUCCGAGGGGACAGUCCCCUGGGUAAUGGCGAAUGGGACCCA — higher, 1.25
- GGCCGGCAUGGUCCCAGCCUCCUCGCUGGCGCCGGCUGGGCAACAUUCCGAGGGGACAGUCCUCUCGGUAAUGGCGAAUGGGACCCA — higher, 1.02
- GGCCGGCAUGGUCCCAGCCUCCUCGCUGGCGCCGGCUGGGCAACAUUCCGAGGGGACUGUCCUCUCGGUAAUGGCGAAUGGGACCCA — higher, 1.04
- GGCCGGCAUGGUCCCAGCCUCCUCGCUGGCGCCGGCUGGGCAACAUUCCGAGGGGACAGUCCCCUCGGUAAUGGCGAAUGGGUCCCA — lower, 0.554
- GGCCGGCAUGGUCCCAGCCUCCUCGCUGGCGCCGGCUGGGCAACAUUCCGAGGGGACAGUCCCCUCGGUAAUGGCGAAUAGGACCCA — lower, 0.544
- GGCCGGCAUGGUCCCAGCCUCCUCGCUGGCGCCGGCUGGGCAACAUUCCGAGGGGACUGUCGCCUCGGUAAUGGCGAAUGGGACCCA — lower, 0.812
- GGCCGGCAUGGUCCCAGCCUCCUCGCUGGCGCCGGCUGGGCAACAUUCCGAGGGGACUGUGCCCUCGGUAAUGGCGAAUGGGACCCA — higher, 0.967
- GGCCGGCAUGGUCCCAGCCUCCUCGCUGGCGCCGGCUGGGCAACAUUCCGAGGGGACGAUCCCCUCGGUAAUGGCGAAUGGGACCCA — higher, 1.1
- GGCCGGCAUGGUCCCAGCCUCCUCGCUGGCGCCGGCUGGGCAACAUUCCGAGGGGACGCUCCCCUCGGUAAUGGCGAAUGGGACCCA — higher, 1.03
- GGCCGGCAUGGUCCCAGCCUCCUCGCUGGCGCCGGCUGGGCAACAUUCCGAGGGGACGUUCCCCUCGGUAAUGGCGAAUGGGACCCA — higher, 0.946
- GGCCGGCAUGGUCCCAGCCUCCUCGCUGGCGCCGGCUGGGCAACAUUCCGAGGGGACGGGCCCCUCGGUAAUGGCGAAUGGGACCCA — lower, 0.532
- GGCCGGCAUGGUCCCAGCCUCCUCGCUGGCGCCGGCUGGGCAACAUUCCGAGGGGACGGUCCCCUCGGUCAUGGCGAAUGGGACCCA — lower, 0.712
- GGCCGGCAUGGUCCCAGCCUCCUCGCUGGCGCCGGCUGGGCAACAUUCCGAGGGGAUCGUCCCCGCGGUAAUGGCGAAUGGGACCCA — higher, 0.919
- GGCCGGCAUGGUCCCAGCCUCCUCGCUGGCGCCGGCUGGGCAACAUUCCGAGGGGAUCGUCCCCACGGUAAUGGCGAAUGGGACCCA — higher, 0.917
- GGCCGGCAUGGUCCCAGCCUCCUCGCUGGCGCCGGCUGGGCAACAUUCCGAGGGGACGGUCCCCUCGGUAAUGACGAAUGGGACCCA — lower, 0.499
- GGCCGGCAUGGUCCCAGCCUCCUCGCUGGCGCCGGCUGGGCAACAUUCCGAGGGGACGGUCCCCUCGGUAAUGGCAAAUGGGACCCA — higher, 1
- GGCCGGCAUGGUCCCAGCCUCCUCGCUGGCGCCGGCUGGGCAACAUUCCGAGGGGACGGUCCCCUCGGUAAUGGCCAAUGGGACCCA — higher, 0.914
- GGCCGGCAUGGUCCCAGCCUCCUCGCUGGCGCCGGCUGGGCAACAUUCCGAGGGGACUGUCCCGUCGGUAAUGGCGAAUGGGACCCA — higher, 0.895
- GGCCGGCAUGGUCCCAGCCUCCUCGCUGGCGCCGGCUGGGCAACAUUCCGAGGGGACGGUCCCCUCGGUAAUGGCGAAUGGGACCAA — lower, 0.727
- GGCCGGCAUGGUCCCAGCCUCCUCGCUGGCGCCGGCUGGGCAACAUUCCGAGGGGACAGUCCCCUCGGUAAUGGCGAAUGAGACCCA — lower, 0.514
- GGCCGGCAUGGUCCCAGCCUCCUCGCUGGCGCCGGCUGGGCAACAUUCCGAGGGGACGGUCCCCUCGGUAAUGGCGAAGGGGACCCA — lower, 0.776
- GGCCGGCAUGGUCCCAGCCUCCUCGCUGGCGCCGGCUGGGCAACAUUCCGAGGGGACAGUCCCCUCGGUAAUGGGGAAUGGGACCCA — lower, 0.116
- GGCCGGCAUGGUCCCAGCCUCCUCGCUGGCGCCGGCUGGGCAACAUUCCGAGGGGACGGUCCCCUCGGUAAUUGCGAAUGGGACCCA — lower, 0.217
- GGCCGGCAUGGUCCCAGCCUCCUCGCUGGCGCCGGCUGGGCAACAUUCCGAGGGGACGGUCCCUUCGGUAAUGGCGAAUGGGACCCA — higher, 1.08
- GGCCGGCAUGGUCCCAGCCUCCUCGCUGGCGCCGGCUGGGCAACAUUCCGAGGGGACGGUCCCCUCGGUAAUGGCGAAUGGGACCCC — higher, 0.919
- GGCCGGCAUGGUCCCAGCCUCCUCGCUGGCGCCGGCUGGGCAACAUUCCGAGGGGACAGUCCCCUCGGUAAUGGCGAAUGGGACCCC — higher, 1.09
- GGCCGGCAUGGUCCCAGCCUCCUCGCUGGCGCCGGCUGGGCAACAUUCCGAGGGGACAGUCCCCUCGGUAAUGGCGAAUGGGACCCU — higher, 1
- GGCCGGCAUGGUCCCAGCCUCCUCGCUGGCGCCGGCUGGGCAACAUUCCGAGGGGACAGUCCCCUCGGUAAUGGCGAAUGGGACCCG — higher, 1.11
- GGCCGGCAUGGUCCCAGCCUCCUCGCUGGCGCCGGCUGGGCAACAUUCCGAGGGGAUCGUCCCCUCGGUAAUGGCGAAUGGAACCCA — lower, 0.269
- GGCCGGCAUGGUCCCAGCCUCCUCGCUGGCGCCGGCUGGGCAACAUUCCGAGGGGAUCGUCCCCUCGGUAAUGGCGAAUGGCACCCA — lower, 0.208
- GGCCGGCAUGGUCCCAGCCUCCUCGCUGGCGCCGGCUGGGCAACAUUCCGAGGGGACAGUCCCCUCGGUAAUGGCAAAUGGGACCCA — higher, 1.02
- GGCCGGCAUGGUCCCAGCCUCCUCGCUGGCGCCGGCUGGGCAACAUUCCGAGGGGACUGUCCCCUCGGUAAUGGCGAGUGGGACCCA — lower, 0.77
- GGCCGGCAUGGUCCCAGCCUCCUCGCUGGCGCCGGCUGGGCAACAUUCCGAGGGGACAGUCCCCUCGGUAAUGGCGAUUGGGACCCA — lower, 0.424
- GGCCGGCAUGGUCCCAGCCUCCUCGCUGGCGCCGGCUGGGCAACAUUCCGAGGGGACAGACCCCUCGGUAAUGGCGAAUGGGACCCA — higher, 1.09
- GGCCGGCAUGGUCCCAGCCUCCUCGCUGGCGCCGGCUGGGCAACAUUCCGAGGGGACGGUCCCCUCGGUAAAGGCGAAUGGGACCCA — lower, 0.594
- GGCCGGCAUGGUCCCAGCCUCCUCGCUGGCGCCGGCUGGGCAACAUUCCGAGGGGACGGUCCCCUCGGCAAUGGCGAAUGGGACCCA — higher, 1.36
- GGCCGGCAUGGUCCCAGCCUCCUCGCUGGCGCCGGCUGGGCAACAUUCCGAGGGGACGGUCCCCUCGGAAAUGGCGAAUGGGACCCA — higher, 0.911
- GGCCGGCAUGGUCCCAGCCUCCUCGCUGGCGCCGGCUGGGCAACAUUCCGAGGGGACGGUCCCCUCGGGAAUGGCGAAUGGGACCCA — higher, 1.17
- GGCCGGCAUGGUCCCAGCCUCCUCGCUGGCGCCGGCUGGGCAACAUUCCGAGGGGACAGUCCCCGCGGUAAUGGCGAAUGGGACCCA — higher, 1.05
- GGCCGGCAUGGUCCCAGCCUCCUCGCUGGCGCCGGCUGGGCAACAUUCCGAGGGGACAGUCCCCUCGGUAAUGGCGAACGGGACCCA — lower, 0.554
- GGCCGGCAUGGUCCCAGCCUCCUCGCUGGCGCCGGCUGGGCAACAUUCCGAGGGGACAGUCCCCUCGAUAAUGGCGAAUGGGACCCA — higher, 0.95
- GGCCGGCAUGGUCCCAGCCUCCUCGCUGGCGCCGGCUGGGCAACAUUCCGAGGGGACGGUCCCCUAGGUAAUGGCGAAUGGGACCCA — higher, 1.15
- GGCCGGCAUGGUCCCAGCCUCCUCGCUGGCGCCGGCUGGGCAACAUUCCGAGGGGACGGUCCCCUGGGUAAUGGCGAAUGGGACCCA — higher, 0.95
- GGCCGGCAUGGUCCCAGCCUCCUCGCUGGCGCCGGCUGGGCAACAUUCCGAGGGGACGGUCCUCUCGGUAAUGGCGAAUGGGACCCA — higher, 1.04
